Test system: Escherichia coli TOP10
Experiment: shrunken log2 fold change of peptide-encoding DNA abundance (4.5 h post-induction vs induction); higher = less antimicrobial activity (less host growth inhibition)
Settings: time post-induction: 4.5 h; library: site-saturation at positions 5, 18, 19, 20
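Note: peptides expressed intracellularly from a pBAD plasmid library in pooled LB shake-flask culture, induced with 0.3% L-arabinose, DNA abundance read by NGS, three biological replicates, DESeq2 with apeglm shrinkage.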

| Sequence | shrunken log2 fold change |
| --- | --- |
| RRIRERPPRLPRPRPRPHPVPRP | -0.277 |
| RRIRIRPPRLPRPRPRPDKNPRP | -0.673 |
| RRIRNRPPRLPRPRPRPTVAPRP | 0.351 |
| RRIRQRPPRLPRPRPRPEWQPRP | 0.00709 |
| RRIRERPPRLPRPRPRPCTEPRP | -0.196 |
| RRIRERPPRLPRPRPRPESGPRP | -0.0112 |
| RRIRPRPPRLPRPRPRPWWAPRP | 0.00677 |
| RRIRERPPRLPRPRPRPTQAPRP | -0.0212 |
| RRIRVRPPRLPRPRPRPENCPRP | -0.0723 |
| RRIRGRPPRLPRPRPRPHVCPRP | 0.359 |
| RRIRNRPPRLPRPRPRPTQVPRP | 0.152 |
| RRIRKRPPRLPRPRPRPVFCPRP | -0.126 |
| RRIRVRPPRLPRPRPRPPCGPRP | 0.297 |
| RRIRKRPPRLPRPRPRPMHSPRP | -0.0199 |
| RRIRYRPPRLPRPRPRPHIQPRP | -1.03 |
| RRIRSRPPRLPRPRPRPGTWPRP | 0.358 |
| RRIRYRPPRLPRPRPRPDDYPRP | 0.0219 |
| RRIRCRPPRLPRPRPRPRQTPRP | 0.781 |
| RRIRDRPPRLPRPRPRPRCFPRP | 1.66 |
| RRIRMRPPRLPRPRPRPRYFPRP | 0.0308 |
| RRIRNRPPRLPRPRPRPEPCPRP | -0.0302 |
| RRIRVRPPRLPRPRPRPQSLPRP | 0.0116 |
| RRIRDRPPRLPRPRPRPCSFPRP | -0.0466 |
| RRIRSRPPRLPRPRPRPTIIPRP | -0.35 |
| RRIRVRPPRLPRPRPRPLISPRP | -0.0293 |

| Sequence | shrunken log2 fold change |
| --- | --- |
| RRIRRRPPRLPRPRPRPKIHPRP | 0.02 |
| RRIRRRPPRLPRPRPRPTIFPRP | 0.149 |
| RRIRSRPPRLPRPRPRPQIPPRP | -0.538 |
| RRIRHRPPRLPRPRPRPPHDPRP | 0.047 |
| RRIRRRPPRLPRPRPRPISMPRP | 0.0655 |
| RRIRHRPPRLPRPRPRPCGVPRP | -0.00991 |
| RRIRYRPPRLPRPRPRPARPPRP | 0.943 |
| RRIRFRPPRLPRPRPRPGILPRP | -0.187 |
| RRIRHRPPRLPRPRPRPVAKPRP | -0.17 |
| RRIRVRPPRLPRPRPRPGPHPRP | 0.121 |
| RRIRDRPPRLPRPRPRPFKKPRP | -0.145 |
| RRIRPRPPRLPRPRPRPHWEPRP | -0.146 |
| RRIRLRPPRLPRPRPRPGGTPRP | -0.0425 |
| RRIRQRPPRLPRPRPRPYNSPRP | -0.198 |
| RRIRKRPPRLPRPRPRPNALPRP | 0.301 |
| RRIRLRPPRLPRPRPRPSLCPRP | -0.462 |
| RRIRFRPPRLPRPRPRPQQAPRP | 0.366 |
| RRIRYRPPRLPRPRPRPPGIPRP | 0.0348 |
| RRIRYRPPRLPRPRPRPTFMPRP | -0.0549 |
| RRIRVRPPRLPRPRPRPPCKPRP | 0.106 |
| RRIRRRPPRLPRPRPRPRPQPRP | 0.541 |
| RRIRWRPPRLPRPRPRPTLDPRP | 0.745 |
| RRIRWRPPRLPRPRPRPPCAPRP | 0.563 |
| RRIRFRPPRLPRPRPRPHTLPRP | -0.62 |
| RRIRNRPPRLPRPRPRPDLTPRP | -0.112 |

| Sequence | shrunken log2 fold change |
| --- | --- |
| RRIRVRPPRLPRPRPRPWMAPRP | -0.338 |
| RRIRYRPPRLPRPRPRPTMFPRP | -0.234 |
| RRIRTRPPRLPRPRPRPPPCPRP | 0.292 |
| RRIRTRPPRLPRPRPRPTNHPRP | -0.622 |
| RRIRMRPPRLPRPRPRPQIEPRP | 0.277 |
| RRIRRRPPRLPRPRPRPYWKPRP | 0.0393 |
| RRIRIRPPRLPRPRPRPMCKPRP | -0.262 |
| RRIRWRPPRLPRPRPRPQFLPRP | -0.0223 |
| RRIRGRPPRLPRPRPRPSNLPRP | -0.113 |
| RRIRNRPPRLPRPRPRPLHNPRP | -0.503 |
| RRIRDRPPRLPRPRPRPDCMPRP | 0.781 |
| RRIRTRPPRLPRPRPRPTWEPRP | 0.95 |
| RRIRLRPPRLPRPRPRPMGTPRP | -0.0465 |
| RRIRKRPPRLPRPRPRPCMDPRP | -0.122 |
| RRIRARPPRLPRPRPRPVIRPRP | -0.055 |
| RRIRYRPPRLPRPRPRPTKPPRP | -0.013 |
| RRIRQRPPRLPRPRPRPLCDPRP | -0.131 |
| RRIRCRPPRLPRPRPRPNTQPRP | -0.0903 |
| RRIRQRPPRLPRPRPRPGQTPRP | 0.00514 |
| RRIRLRPPRLPRPRPRPHVDPRP | 0.0142 |
| RRIRTRPPRLPRPRPRPSNIPRP | -0.329 |
| RRIRCRPPRLPRPRPRPVQGPRP | -0.0182 |
| RRIRGRPPRLPRPRPRPEKNPRP | 0.921 |
| RRIRYRPPRLPRPRPRPQFPPRP | -0.0877 |
| RRIRTRPPRLPRPRPRPAAAPRP | 0.618 |

| Sequence | shrunken log2 fold change |
| --- | --- |
| RRIRFRPPRLPRPRPRPDIAPRP | 0.101 |
| RRIRVRPPRLPRPRPRPRDVPRP | -0.113 |
| RRIRIRPPRLPRPRPRPNLKPRP | -0.484 |
| RRIRNRPPRLPRPRPRPRVIPRP | -0.21 |
| RRIRCRPPRLPRPRPRPNDNPRP | -0.692 |
| RRIRDRPPRLPRPRPRPQGNPRP | -0.0306 |
| RRIRPRPPRLPRPRPRPGRDPRP | 0.286 |
| RRIRFRPPRLPRPRPRPDYMPRP | -0.432 |
| RRIRSRPPRLPRPRPRPVPDPRP | -0.0298 |
| RRIRVRPPRLPRPRPRPPWCPRP | 0.497 |
| RRIRPRPPRLPRPRPRPAHLPRP | 0.317 |
| RRIRNRPPRLPRPRPRPVTFPRP | -0.356 |
| RRIRDRPPRLPRPRPRPQYLPRP | -0.248 |
| RRIRQRPPRLPRPRPRPQELPRP | 0.157 |
| RRIRVRPPRLPRPRPRPGMKPRP | -1.14 |
| RRIRLRPPRLPRPRPRPRWTPRP | 0.404 |
| RRIRTRPPRLPRPRPRPDWFPRP | -0.112 |
| RRIRKRPPRLPRPRPRPDFCPRP | 0.129 |
| RRIRDRPPRLPRPRPRPYFRPRP | -0.318 |
| RRIRHRPPRLPRPRPRPCAHPRP | 0.0671 |
| RRIRTRPPRLPRPRPRPNKLPRP | -0.127 |
| RRIRWRPPRLPRPRPRPSIEPRP | 0.0114 |
| RRIRGRPPRLPRPRPRPIETPRP | 0.312 |
| RRIRWRPPRLPRPRPRPQPKPRP | 0.294 |
| RRIRNRPPRLPRPRPRPCDTPRP | -0.0137 |

| Sequence | shrunken log2 fold change |
| --- | --- |
| RRIRLRPPRLPRPRPRPCGCPRP | 0.282 |
| RRIRHRPPRLPRPRPRPHIPPRP | -0.514 |
| RRIRKRPPRLPRPRPRPVAMPRP | 1.67 |
| RRIRERPPRLPRPRPRPQSVPRP | -0.0488 |
| RRIRPRPPRLPRPRPRPIWVPRP | 0.0645 |
| RRIRHRPPRLPRPRPRPRSKPRP | 3.34 |
| RRIRGRPPRLPRPRPRPAMSPRP | 0.508 |
| RRIRIRPPRLPRPRPRPRTWPRP | -0.0123 |
| RRIRLRPPRLPRPRPRPIVNPRP | -0.803 |
| RRIRVRPPRLPRPRPRPGEKPRP | -0.186 |
| RRIRPRPPRLPRPRPRPWHRPRP | -0.156 |
| RRIRHRPPRLPRPRPRPGYTPRP | -0.302 |
| RRIRGRPPRLPRPRPRPSNPPRP | 0.14 |
| RRIRTRPPRLPRPRPRPDCCPRP | 0.135 |
| RRIRARPPRLPRPRPRPVCKPRP | 0.195 |
| RRIRSRPPRLPRPRPRPWIRPRP | -0.207 |
| RRIRARPPRLPRPRPRPCLYPRP | 0.137 |
| RRIRNRPPRLPRPRPRPLYMPRP | -0.308 |
| RRIRERPPRLPRPRPRPCPSPRP | -0.115 |
| RRIRLRPPRLPRPRPRPGTAPRP | 0.362 |
| RRIRTRPPRLPRPRPRPIIRPRP | -0.0034 |
| RRIRQRPPRLPRPRPRPHFHPRP | -0.396 |
| RRIRNRPPRLPRPRPRPKPNPRP | 0.513 |
| RRIRNRPPRLPRPRPRPGEDPRP | -0.376 |
| RRIRFRPPRLPRPRPRPQKQPRP | -0.199 |

| Sequence | shrunken log2 fold change |
| --- | --- |
| RRIRLRPPRLPRPRPRPYTDPRP | -0.348 |
| RRIRGRPPRLPRPRPRPLMYPRP | -0.00226 |
| RRIRTRPPRLPRPRPRPKSMPRP | -0.62 |
| RRIRYRPPRLPRPRPRPGLSPRP | -0.439 |
| RRIRGRPPRLPRPRPRPKNIPRP | -0.101 |
| RRIRLRPPRLPRPRPRPMDPPRP | 0.0507 |
| RRIRMRPPRLPRPRPRPDWNPRP | -0.0431 |
| RRIRCRPPRLPRPRPRPPTTPRP | 0.353 |
| RRIRHRPPRLPRPRPRPEGMPRP | -0.0777 |
| RRIRERPPRLPRPRPRPNQFPRP | -0.525 |
| RRIRTRPPRLPRPRPRPHAYPRP | -0.635 |
| RRIRHRPPRLPRPRPRPEAQPRP | -0.00183 |
| RRIRYRPPRLPRPRPRPAQGPRP | -0.0469 |
| RRIRERPPRLPRPRPRPGIMPRP | -0.738 |
| RRIRNRPPRLPRPRPRPNIGPRP | -0.00968 |
| RRIRPRPPRLPRPRPRPHHKPRP | -0.647 |
| RRIRPRPPRLPRPRPRPEKHPRP | 0.418 |
| RRIRERPPRLPRPRPRPEAWPRP | 0.0366 |
| RRIRARPPRLPRPRPRPQCKPRP | -0.077 |
| RRIRIRPPRLPRPRPRPDWIPRP | -1.16 |
| RRIRMRPPRLPRPRPRPVPCPRP | 0.291 |
| RRIRIRPPRLPRPRPRPWNDPRP | -0.216 |
| RRIRIRPPRLPRPRPRPFYRPRP | -0.194 |
| RRIRYRPPRLPRPRPRPEPMPRP | -0.0988 |
| RRIRSRPPRLPRPRPRPAYRPRP | -0.154 |

Reference: the supplement of paper PMC9112550, “Optimization of the antimicrobial peptide Bac7 by deep mutational scanning” (BMC Biology, 2022)
